Laboratory results as given in the supplement of paper PMC9170038.

System: MS2 coat protein
Assay: apparent KD of MS2 coat protein; designed switch direction (-1 OFF switch, 1 ON switch): -1; higher = weaker reporter binding
Method in brief: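 An oligonucleotide input, 200 uM small-molecule ligand, or no input was present during titration of SNAP-549-labelled MS2 coat protein, which was doubled from 0.7 or 1.5 nM to 3 µM. Designed RNA switches had been transcribed on Illumina chips by stalled E. coli RNA polymerase. Apparent KD per design is the median over clusters of curves fitted to normalised cluster fluorescence.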

[1] = Eterna round: R95, input ligand: microRNA oligo, concentration not stated
[2] = input ligand: microRNA oligo, concentration not stated
[3] = Eterna round: R95, input ligand: FMN 200 uM
[4] = Eterna round: R95, input ligand: none

Row | Sequence | apparent KD of MS2 coat protein [1] | apparent KD of MS2 coat protein (input ligand: FMN 200 uM) | apparent KD of MS2 coat protein [2] | apparent KD of MS2 coat protein (input ligand: none) | apparent KD of MS2 coat protein [3] | apparent KD of MS2 coat protein [4]
1 | GGUGGACAUGAGGAUCACCCAUGUGAGGAUAUCGGCUGUCUACUCGCUGACGGCUGCUCGAGAAGGCGCAUUGU [Exclusion 1 V89] (puzzle: Exclusion 1) | 38.6 nM | – | – | – | – | –
2 | GGUGGCUGCGUGAGACAUGAGGAUCACCCAUGUUACCGAACAAAGGAUAUAGAAGCACACAGCUACUAGAAGGUUGAAAAGAAA [Requen] (Eterna round: R96, puzzle: Exclusion NG 3) | – | 12.2 nM | 16.2 nM | 19.6 nM | – | –
3 | GGUGGGCUAGGAUAUGCUUUGGGAAGGCAUUCCUUCGAUAAACUUGAGGAUCACCCAAGUAGAAGGAGCUUGCC [salish99_ex2_r4_021] (Eterna round: R97, puzzle: Exclusion 2) | – | 21.3 nM | – | 13.6 nM | – | –
4 | GGUGUACAUGAGGAUCACCCAUGUUAGGAUAUAUCCAAACGCCUAGAGGAGAGGCACGAUAGAAGGAACGUGUA [Eternabot (Original) Solution 33] (Eterna round: R97, puzzle: Exclusion 1) | – | 37.2 nM | – | 41 nM | – | –
5 | GGUGUGAGGCAGGAUAUGCAAUAAGUAAGUAAUGCAGAAGGGUCUACAUGAGGAUCACCCAUGUGUGCGGUAGA [Ex6 #2] (Eterna round: R97, puzzle: Exclusion 6) | – | 202 nM | – | 109 nM | – | –
6 | GGUGUGCCAGUCAGGAUAUGAUCCACGCCCGUAGGUCAGAAGGGACUUGAGGAUCACCCAAGUUGCAAGAAAGA [Gesoxedi] (Eterna round: R97, puzzle: Brourd's mod of Exclusion 4) | – | 100 nM | – | 97.3 nM | – | –
7 | GGUUAGACGGUAGGAUAUCCAUAUCGAGUGACCCUUUCAUAACAUGAGGAUCACCCAUGUCGGUGGGAGAAGGGCCGUACGGCG [salish99_ExNG02_R04_009] (Eterna round: R96, puzzle: Exclusion NG 2) | – | 50.9 nM | 33.5 nM | 42.2 nM | – | –
8 | GGUUAUUGCAAGGAUAUGCUUUUUUUUGAUAUUGCAGAAGGUGCAACAUGAGGAUCACCCAUGUUGGAUGGGUU [JR_E6_Sub019] (puzzle: Exclusion 6) | 94.1 nM | – | – | – | – | –
9 | GGUUCCUGAGGAUAUACAUGAGGAUCACCCAUGUCUAUAUCAGCAGACGAUGACACAAGUAGAAGGUAGAGGGC [Eternabot (L2) Solution 48] (Eterna round: R97, puzzle: Exclusion 3) | – | 15 nM | – | 10.4 nM | – | –
10 | GGUUGACAUGAGGAUCACCCAUGUGAGGAUAUGCGAGAGAAAAAAGUGAGGAAGAAUUGCAGAAGGCGCUGUCG [salish99-ex1_r3_015] (puzzle: Exclusion 1) | 37.1 nM | – | – | – | 69.3 nM | 76.9 nM
11 | GGUUGACAUGAGGAUCACCCAUGUGAGGAUAUGCGAGAGAAAAAAGUGAGGAAGUUUUGCAGAAGGCGCUGUCG [salish99-ex1_r3_007] (puzzle: Exclusion 1) | 87.5 nM | – | – | – | 43.5 nM | 56 nM
12 | GGUUGGCGAGGAUAUACAUGAGGAUCACCCAUGUGACAGAAAAAAGUGAGGAAGAAAAGUAGAAGGCGCUGACG [salish99_ex3_r3_019] (puzzle: Exclusion 3) | 44.9 nM | – | – | – | 587 nM | 37.1 nM
13 | GGUUGGCGAGGAUAUACAUGAGGAUCACCCAUGUGAGACAAAAAAGUGAGGAAGAAAAGUAGAAGGCGCUGACG [salish99_ex3_r3_021] (puzzle: Exclusion 3) | 54.1 nM | – | – | – | 362 nM | 64.1 nM
14 | GGUUGGCGAGGAUAUACAUGAGGAUCACCCAUGUGAGAGAAAAAAGCGAGGAAGAAAAGUAGAAGGCGCUGACG [salish99_ex3_r3_027] (puzzle: Exclusion 3) | 43 nM | – | – | – | 137 nM | 56 nM
15 | GGUUGGCGAGGAUAUACAUGAGGAUCACCCAUGUGAGAGAAAAAAGUGAGGAACAAAAGUAGAAGGCGCUGACG [salish99_ex3_r3_033] (puzzle: Exclusion 3) | 48.5 nM | – | – | – | 184 nM | 58.2 nM
16 | GGUUGGCGAGGAUAUACAUGAGGAUCACCCAUGUGAGAGAAAAAAGUGAGGAAGAAAAGUAGAAGGCGCUGACG [salish99-ex3-14] (Eterna round: R96, puzzle: Exclusion 3) | – | 354 nM | 105 nM | 84 nM | – | –
17 | GGUUGGCGAGGAUAUACAUGAGGAUCACCCAUGUGAGAGAAAAAAGUGAGGAAGAAAAGUAGAAGGCGCUGACG [salish99-ex3-champ] (puzzle: Exclusion 3) | 49.3 nM | – | – | – | 412 nM | 44.5 nM
18 | GGUUGGCGAGGAUAUACAUGAGGAUCACCCAUGUGAGAGAAAAAAGUGAGGAAGAAAAGUAGAAGGCGCUGACU [salish99_ex3_r3_047] (puzzle: Exclusion 3) | 53.2 nM | – | – | – | 221 nM | 50.1 nM

Row | Sequence | apparent KD of MS2 coat protein [1] | apparent KD of MS2 coat protein (input ligand: FMN 200 uM) | apparent KD of MS2 coat protein [2] | apparent KD of MS2 coat protein (input ligand: none) | apparent KD of MS2 coat protein [3] | apparent KD of MS2 coat protein [4]
19 | GGUUGGCGAGGAUAUACAUGAGGAUCACCCAUGUGAGAGAAAAGAGUGAGAACGAAAAGUAGAAGGCGCUGACG [salish99_ex3_r3_059] (puzzle: Exclusion 3) | 112 nM | – | – | – | 60 nM | 207 nM
20 | GGUUGGCGAGGAUAUACAUGAGGAUCACCCAUGUGAGAGAAAAGAGUGAGGAAGAAAAGUAGAAGGCGCUGACG [salish99_ex3_r3_006] (puzzle: Exclusion 3) | 69.8 nM | – | – | – | 55.9 nM | 76.1 nM
21 | GGUUGGCGAGGAUAUACAUGAGGAUCACCCAUGUGAGAGAUACUAGUGAGGUCGAUUGGUAGAAGGCGCUGACA [Mat - Exclusion 3 - Mod of JL D78] (puzzle: Exclusion 3) | 114 nM | – | – | – | – | –
22 | GGUUGGCGAGGAUAUACAUGAGGAUCACCCAUGUGAGAGGAAAAAGUGAGAACGAAAAGUAGAAGGCGCUGACG [salish99_ex3_r3_062] (puzzle: Exclusion 3) | 78.9 nM | – | – | – | 119 nM | 225 nM
23 | GGUUGGCGAGGAUAUACAUGAGGAUCACCCAUGUGAGUGAAAAAAGUGAGGAAGAAAAGUAGAAGGCGCUGACG [salish99_ex3_r3_008] (puzzle: Exclusion 3) | 254 nM | – | – | – | 288 nM | 196 nM
24 | GGUUUGUAAGGAUAUCCGAGAGGUAGGUGAGGGUUAGGGAAGGAGAAGGUACAUGAGGAUCACCCAUGUAAGGG [AK-MS2ROC-r4-exclusion4-10] (Eterna round: R97, puzzle: Exclusion 4) | – | 127 nM | – | 102 nM | – | –
25 | GUAAAACAUGAGGAUCACCCAUGUCAGGAUAUACGAAUCCACCCUAACUGCGUGGAUCGUAGAAGGGACAUAGG [Exclusion 1 (MOD5.1 Esqu)] (Eterna round: R97, puzzle: Exclusion 1) | – | 17.9 nM | – | 44.7 nM | – | –
26 | GUAAAACAUGUAGGAUAUGCGUGGCAAAGCUAUGCAGAAGGACAUGAGGAUCACCCAUGUUAAAGCGUCUGAGUACAGAUGCAA [Mat - Exclusion NG 1 - Mod of JL - D96] (Eterna round: R96, puzzle: Exclusion NG 1) | – | 445 nM | 27.4 nM | 36 nM | – | –
27 | GUAAACGAAGAGGAUAUAUGAUAUCAAAGCUUCAUAGAAGGCUUCACAUGAGGAUCACCCAUGUGAUCUUCAAA [Mat - Exclusion 6 - JL Mod - D26] (Eterna round: R97, puzzle: Exclusion 6) | – | 203 nM | – | 38.1 nM | – | –
28 | GUAAACGCAGAGGAUAUAUCAGAUCAAAGCUGCAUAGAAGGCUGCACAUGAGGAUCACCCAUGUGGUCUUUAAU [Mat - Exclusion 6 - JL Mod - D3] (Eterna round: R97, puzzle: Exclusion 6) | – | 203 nM | – | 21 nM | – | –
29 | GUAAAGAGAGGAUAUACAUGAGGAUCACCCAUGUACGACCAGCAGAAAUGGUCCUCGAGUAGAAGGCUCGGGUA [Araris] (Eterna round: R97, puzzle: Exclusion 3) | – | 239 nM | – | 51.7 nM | – | –
30 | GUAAAGGUAGGAUAUACGAAGAAAAAGGGUAGAAUAAUAACACAUGAGGAUCACCCAUGUAGAAGGACCAAAUG [Mat - Exclusion 2 - Mod of my Tesla design - D5] (puzzle: Exclusion 2) | 26.5 nM | – | – | – | 65.7 nM | 32.4 nM
31 | GUAAAGUGAGGAUAUGGUAAAGUAAGUAUGUAGUAAGUAAUCCAGAAGGCACAUGAGGAUCACCCAUGUAAAUG [Mat - Exclusion 4 - D99] (puzzle: Exclusion 4) | 28.8 nM | – | – | – | – | –
32 | GUAAAGUGAGGAUAUGGUAAAUUAAUUAUUUAGUAAUUAAUCCAGAAGGCACAUGAGGAUCACCCAUGUAAAUG [Mat - Exclusion 4 - D95] (puzzle: Exclusion 4) | 32.1 nM | – | – | – | – | –
33 | GUAACAUUAAAGGCUCGUGACAUGAGGAUCACCCAUGUAUGGACCGUUCCACUUACCGACAAGCUGUGAUCGUCCUU [Eternabot (L2) Solution 22] (Eterna round: R97, puzzle: Sensor, turn-off variant 1) | – | 40.8 nM | – | 42 nM | – | –
34 | GUAAUGAUUGUGAGGAUAUUUCAUAGAUAGAUAUUAGAGAAGGUACAUGAGGAUCACCCAUGUGUGAUCAUACA [Brourd's EX4 #73] (Eterna round: R97, puzzle: Brourd's mod of Exclusion 4) | – | 672 nM | – | 1050 nM | – | –
35 | GUAAUGUCCGAGGAUAUCCUUCUAAAUAUAUAUGGAGAAGGCGGUACAUGAGGAUCACCCAUGUCCAAAAUGGG [Parada] (Eterna round: R97, puzzle: Exclusion 6) | – | 229 nM | – | 1680 nM | – | –
